Here are results for eight molecules from paper PMC11321683, “A Functional InDel in the WRKY10 Promoter Controls the Degree of Flesh Red Pigmentation in Apple”.

The data set deals with MdWRKY10 (Malus domestica, UniProt D9ZJE9 1-528). The experiment in a line: EMSA; EMSA with LightShift chemiluminescent kit (Thermo) per manufacturer; buffer, pH and temperature not stated. The conditions noted are these: protein: recombinant; tags: His (pET-32a(+) vector); label: 3' biotin; blunt. (In EMSA bound probe runs differently from free probe, usually more slowly.)
Sequence of MdWRKY10 (D9ZJE9 entry or part of it): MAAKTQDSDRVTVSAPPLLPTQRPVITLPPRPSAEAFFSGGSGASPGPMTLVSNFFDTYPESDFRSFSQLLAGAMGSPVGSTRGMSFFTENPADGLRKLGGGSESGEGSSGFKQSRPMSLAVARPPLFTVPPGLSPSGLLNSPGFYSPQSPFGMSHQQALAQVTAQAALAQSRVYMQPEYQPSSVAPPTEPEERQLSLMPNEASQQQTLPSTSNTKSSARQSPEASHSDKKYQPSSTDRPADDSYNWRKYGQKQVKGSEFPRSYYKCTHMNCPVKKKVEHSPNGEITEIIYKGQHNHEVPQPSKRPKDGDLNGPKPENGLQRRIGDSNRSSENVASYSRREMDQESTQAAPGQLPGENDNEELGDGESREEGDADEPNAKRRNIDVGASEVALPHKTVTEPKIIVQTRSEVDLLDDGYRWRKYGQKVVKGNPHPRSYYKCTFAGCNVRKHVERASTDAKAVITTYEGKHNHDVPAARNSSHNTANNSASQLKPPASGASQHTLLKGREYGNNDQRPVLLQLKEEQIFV

B1: proMdUFGT W5 (dsDNA)
DNA 1: TTTTTTGCAACAAATTACCTTTGACTAACAAAACAAGGATATTTCT
DNA 2: AGAAATATCCTTGTTTTGTTAGTCAAAGGTAATTTGTTGCAAAAAA
Turning to B1, the binding result is listed as “binds”.

B2: proMdUFGT W5 mutant (dsDNA)
DNA 1: TTTTTTGCAACAAATTACCTTTTCCTAACAAAACAAGGATATTTCT
DNA 2: AGAAATATCCTTGTTTTGTTAGGAAAAGGTAATTTGTTGCAAAAAA
For the molecule B2, the binding result was “no binding”.

B3: proMdF3'5'H W2 (dsDNA)
DNA 1: TAAATAGTATCTAACGAAAATTGACCGCACGATATACAATGAACGA
DNA 2: TCGTTCATTGTATATCGTGCGGTCAATTTTCGTTAGATACTATTTA
Regarding B3, the binding result was “binds”.

B4: proMdF3'5'H W2 mutant (dsDNA)
DNA 1: TAAATAGTATCTAACGAAAATTTCCCGCACGATATACAATGAACGA
DNA 2: TCGTTCATTGTATATCGTGCGGGAAATTTTCGTTAGATACTATTTA
Regarding B4, the binding result is reported as “no binding”.

B5: proMdMYB10 W2 (dsDNA)
DNA 1: TGATAAAGGTATCTTATGGTGGTCAAAGATGTGTGTTGTAACTAGT
DNA 2: ACTAGTTACAACACACATCTTTGACCACCATAAGATACCTTTATCA
Consider B5, for which the binding result was “binds”.

B6: proMdMYB10 W2 mutant (dsDNA)
DNA 1: TGATAAAGGTATCTTATGGTGGGAAAAGATGTGTGTTGTAACTAGT
DNA 2: ACTAGTTACAACACACATCTTTTCCCACCATAAGATACCTTTATCA
In the case of B6, the binding result is on record as “no binding”.

B7: proMdF3'5'H W3 (dsDNA)
DNA 1: TCACTCATATAGGTAAACTTTGTCAAGGATGTTCATGTAATTATAA
DNA 2: TTATAATTACATGAACATCCTTGACAAAGTTTACCTATATGAGTGA
Turning to B7, the binding result is given as “binds”.

B8: proMdF3'5'H W3 mutant (dsDNA)
DNA 1: TCACTCATATAGGTAAACTTTGGAAAGGATGTTCATGTAATTATAA
DNA 2: TTATAATTACATGAACATCCTTTCCAAAGTTTACCTATATGAGTGA
For the molecule B8, the binding result is reported as “no binding”.
